{"source": "patent US20230087378A1", "about": "(UCB, published 2023)", "molecules": {"B1": {"name": "DVD2174 (Abbvie) (bispecific antibody)", "chain 1": "EVQLVQSGAEVKKPGASVKVSCKASGYTFTTYGVSWVRQAPGQGLEWMGEIYPGNYNTYYNEKFRGRVTMTTDTSTSTAYMELRSLRSDDTAVYYCARWRTSYFSDYGYFDYWGQGTTVTVSSASTKGPEVQLVQSGAEVKKPGSSVKVSCKASGGSFGGYGIGWVRQAPGQGLEWMGGITPFFGFADYAQKFQGRVTITADESTTTAYMELSGLTSDDTAVYYCARDPNEFWNGYYSTHDFDSWGQGTTVTVSS", "chain 2": "DVVMTQSPLSLPVTLGQPASISCRSSQSLVHSHGNTYLHWYQQRPGQSPRLLIYTVSNRFSGVPDRFSGSGSGTDFTLKISRVEAEDVGVYYCSQSTHVPYTFGGGTKVEIKRTVAAPSVFIFPPEIVLTQSPDFQSVTPKEKVTITCRASQDIGSELHWYQQKPDQPPKLLIKYASHSTSGVPSRFSGSGSGTDFTLTINGLEAEDAGTYYCHQTDSLPYTFGPGTKVDIKR"}, "B2": {"name": "DVD2166 (Abbvie) (bispecific antibody)", "chain 1": "EVQLVQSGAEVKKPGASVKVSCKASGYTFTTYGVSWVRQAPGQGLEWMGEIYPGNYNTYYNEKFRGRVTMTTDTSTSTAYMELRSLRSDDTAVYYCARWRTSYFSDYGYFDYWGQGTTVTVSSASTKGPEVQLVQSGAEVKKPGSSVKVSCKASGYTFTDYEIHWVRQAPGQGLEWMGVNDPESGGTFYNQKFDGRVTLTADESTSTAYMELSSLRSEDTAVYYCTRYSKWDSFDGMDYWGQGTTVTVSS", "chain 2": "DVVMTQSPLSLPVTLGQPASISCRSSQSLVHSHGNTYLHWYQQRPGQSPRLLIYTVSNRFSGVPDRFSGSGSGTDFTLKISRVEAEDVGVYYCSQSTHVPYTFGGGTKVEIKRTVAAPDIQMTQSPSSLSASVGDRVTITCRASSGIISYIDWFQQKPGKAPKRLIYATFDLASGVPSRFSGSGSGTDYTLTISSLQPEDFATYYCRQVGSYPETFGQGTKLEIKR"}}, "key": {"Human IL-13 [1]": {"target": "T1, Human IL-13 (human, UniProt P35225 35-146)", "assay": "SPR, 100 nM IL-13Rα2 injected over IL-13 held by captured UCBXXXX (competitor)"}, "Human IL-17F": {"target": "T2, Human IL-17F (human, UniProt Q96PD4 31-163)", "T2 sequence (looked up)": "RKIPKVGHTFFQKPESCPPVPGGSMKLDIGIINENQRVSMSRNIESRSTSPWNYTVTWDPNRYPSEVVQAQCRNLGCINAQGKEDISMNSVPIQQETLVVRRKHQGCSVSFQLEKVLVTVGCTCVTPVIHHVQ", "assay": "SPR (Biacore T200), antibody captured on anti-human F(ab')2, human IL-17F as analyte, 25 C, 1:1 model", "procedure": "(§1) A goat anti-human IgG, F(ab′)₂ fragment specific antibody (Jackson ImmunoResearch) was immobilised on a CM5 Sensor Chip via amine coupling chemistry to a level of approximately 5000 RU. […] At the end of each cycle the surface was regenerated at a flowrate of 10 μl/min using a 60 s injection of 50 mM HCl followed by a 30 s injection of 5 mM NaOH and a final 60 s injection of 50 mM HCl. […] Buffer blank injections were included to subtract instrument noise and drift.\n(§2) Kinetic parameters were determined using a 1:1 binding model using Biacore T200 Evaluation software (version 3.0)."}, "Human IL-17A": {"target": "Human IL-17A (human, UniProt Q16552 24-155)", "assay": "SPR (Biacore T200), antibody captured on anti-human F(ab')2, human IL-17A as analyte, 25 C, 1:1 model", "procedure": "as §1, §2"}, "Human IL-13 [2]": {"target": "T1, Human IL-13", "assay": "SPR, antibody captured on anti-human F(ab')2, 25 nM IL-13 injected"}, "Human IL-13 [3]": {"target": "T1, Human IL-13", "assay": "SPR (Biacore T200), antibody captured on anti-human F(ab')2, human IL-13 as analyte, 25 C, 1:1 model", "procedure": "as §1, §2"}}, "data": [{"molecule": "IL-13Rα2 (from UniProt Q14627 27-343) (receptor)", "values": [{"measurement": "IL-13Rα2 Binding (RU)", "setting": "Human IL-13 [1]", "result": 0.3, "unit": "RU"}]}, {"molecule": "BITS7201A (Genentech) (bispecific antibody)", "values": [{"measurement": "Kd", "setting": "Human IL-17F", "result": 0.0744, "unit": "nM"}, {"measurement": "koff", "setting": "Human IL-17F", "result": 0.000574, "unit": "s⁻¹"}, {"measurement": "kon", "setting": "Human IL-17F", "result": "7.71e+06", "unit": "M⁻¹ s⁻¹"}, {"measurement": "Kd", "setting": "Human IL-17A", "result": 0.0844, "unit": "nM"}, {"measurement": "koff", "setting": "Human IL-17A", "result": 0.00106, "unit": "s⁻¹"}, {"measurement": "kon", "setting": "Human IL-17A", "result": "1.27e+07", "unit": "M⁻¹ s⁻¹"}, {"measurement": "IL-13 Binding (RU)", "setting": "Human IL-13 [2]", "result": 8.6, "unit": "RU"}, {"measurement": "Kd", "setting": "Human IL-13 [3]", "result": 0.0275, "unit": "nM"}, {"measurement": "koff", "setting": "Human IL-13 [3]", "result": "5.69e-05", "unit": "s⁻¹"}, {"measurement": "kon", "setting": "Human IL-13 [3]", "result": "2.05e+06", "unit": "M⁻¹ s⁻¹"}]}, {"molecule": "B1", "values": [{"measurement": "Kd", "setting": "Human IL-17A", "result": 0.268, "unit": "nM"}, {"measurement": "koff", "setting": "Human IL-17A", "result": 0.000128, "unit": "s⁻¹"}, {"measurement": "kon", "setting": "Human IL-17A", "result": 476000, "unit": "M⁻¹ s⁻¹"}, {"measurement": "Kd", "setting": "Human IL-13 [3]", "result": 0.0563, "unit": "nM"}, {"measurement": "koff", "setting": "Human IL-13 [3]", "result": "3.66e-05", "unit": "s⁻¹"}, {"measurement": "kon", "setting": "Human IL-13 [3]", "result": 650000, "unit": "M⁻¹ s⁻¹"}]}, {"molecule": "B2", "values": [{"measurement": "Kd", "setting": "Human IL-17A", "result": 0.137, "unit": "nM"}, {"measurement": "koff", "setting": "Human IL-17A", "result": "7.68e-05", "unit": "s⁻¹"}, {"measurement": "kon", "setting": "Human IL-17A", "result": 559000, "unit": "M⁻¹ s⁻¹"}, {"measurement": "Kd", "setting": "Human IL-13 [3]", "result": 0.0184, "unit": "nM"}, {"measurement": "koff", "setting": "Human IL-13 [3]", "result": "1.5e-05", "unit": "s⁻¹"}, {"measurement": "kon", "setting": "Human IL-13 [3]", "result": 816000, "unit": "M⁻¹ s⁻¹"}]}]}
